Laboratory results as given in US20250242041A1 (Seagen, published 2025).
Numbering of substitutions follows the chain as printed.

B1: h2A2 HCLH (antibody, V domains shown)
VH: QFQLVQSGAEVKKPGASVKVSCKASGYSFTDYNVNWVRQAPGQGLEWIGVINPKYGTTRYNQKFKGRATLTVDKSTSTAYMELSSLRSEDTAVYYCTRGLNAWDYWGQGTLVTVSS
VL: DIQMTQSPSSLSASVGDRVTITCGASENIYGALNWYQQKPGKAPKLLIYGATNLADGVPSRFSGSGSGRDFTFTISSLQPEDIATYYCQNVLTTPYTFGQGTKLEIKR
B2: h2A2 HCLE (antibody, V domains shown)
VH: B1 VH
VL: B1 VL with G24Q, F71Y
B3: h2A2 HALG (antibody, V domains shown)
VH: B1 VH with I48M, A68V, L70M, V72R, K74T, A79V
VL: B1 VL with A55E, F71Y
B4: h2A2 HALC (antibody, V domains shown)
VH: B1 VH with I48M, A68V, L70M, V72R, K74T, A79V
VL: B1 VL with D56T, F71Y
B5: h2A2 HCLD (antibody, V domains shown)
VH: B1 VH
VL: B1 VL with R69T, F71Y
B6: c2A2 (antibody, V domains shown)
VH: EFQLQQSGPELVKPGASVKISCKASGYSFTDYNVNWVKQSNGKSLEWIGVINPKYGTTRYNQKFKGKATLTVDKPSSTAYMQLNSLTSEDSAVYYCTRGLNAWDYWGQGASVTVSS
VL: DIQMTQSPASLSASVGETVTITCGASENIYGALNWYQRKQGKSPQLLIYGATNLADGMSSRFSGSGSGRQYSFKISSLHPDDVATYYCQNVLTTPYTFGGGTKLEIK
B7: h2A2 HCLC (antibody, V domains shown)
VH: B1 VH
VL: B1 VL with D56T, F71Y
B8: h2A2 HCLB (antibody, V domains shown)
VH: B1 VH
VL: B1 VL with F71Y
B9: h2A2 HALH (antibody, V domains shown)
VH: B1 VH with I48M, A68V, L70M, V72R, K74T, A79V
VL: B1 VL
B10: h2A2 HCLF (antibody, V domains shown)
VH: B1 VH
VL: B1 VL with G24Q, D56T, R69T, F71Y
B11: h2A2 HALD (antibody, V domains shown)
VH: B1 VH with I48M, A68V, L70M, V72R, K74T, A79V
VL: B1 VL with R69T, F71Y
B12: h2A2 HALB (antibody, V domains shown)
VH: B1 VH with I48M, A68V, L70M, V72R, K74T, A79V
VL: B1 VL with F71Y
B13: h2A2 HALF (antibody, V domains shown)
VH: B1 VH with I48M, A68V, L70M, V72R, K74T, A79V
VL: B1 VL with G24Q, D56T, R69T, F71Y
B14: h2A2 HALE (antibody, V domains shown)
VH: B1 VH with I48M, A68V, L70M, V72R, K74T, A79V
VL: B1 VL with G24Q, F71Y
B15: h2A2 HDLB (antibody, V domains shown)
VH: B1 VH with S75P
VL: B1 VL with F71Y
B16: h2A2 HCLA (antibody, V domains shown)
VH: B1 VH
VL: B1 VL with R69T
B17: h2A2 HBLA (antibody, V domains shown)
VH: B1 VH with I48M, A68V, L70M, V72R, K74T, S75P, A79V
VL: B1 VL with R69T
B18: h2A2 HBLB (antibody, V domains shown)
VH: B1 VH with I48M, A68V, L70M, V72R, K74T, S75P, A79V
VL: B1 VL with F71Y
B19: h2A2 HALA (antibody, V domains shown)
VH: B1 VH with I48M, A68V, L70M, V72R, K74T, A79V
VL: B1 VL with R69T
B20: h2A2 HDLA (antibody, V domains shown)
VH: B1 VH with S75P
VL: B1 VL with R69T

Target: T1, human αvβ6 on 293F:huβ6 cells (human, UniProt P06756 31-1048; P18564 22-788)
T1 chain 1: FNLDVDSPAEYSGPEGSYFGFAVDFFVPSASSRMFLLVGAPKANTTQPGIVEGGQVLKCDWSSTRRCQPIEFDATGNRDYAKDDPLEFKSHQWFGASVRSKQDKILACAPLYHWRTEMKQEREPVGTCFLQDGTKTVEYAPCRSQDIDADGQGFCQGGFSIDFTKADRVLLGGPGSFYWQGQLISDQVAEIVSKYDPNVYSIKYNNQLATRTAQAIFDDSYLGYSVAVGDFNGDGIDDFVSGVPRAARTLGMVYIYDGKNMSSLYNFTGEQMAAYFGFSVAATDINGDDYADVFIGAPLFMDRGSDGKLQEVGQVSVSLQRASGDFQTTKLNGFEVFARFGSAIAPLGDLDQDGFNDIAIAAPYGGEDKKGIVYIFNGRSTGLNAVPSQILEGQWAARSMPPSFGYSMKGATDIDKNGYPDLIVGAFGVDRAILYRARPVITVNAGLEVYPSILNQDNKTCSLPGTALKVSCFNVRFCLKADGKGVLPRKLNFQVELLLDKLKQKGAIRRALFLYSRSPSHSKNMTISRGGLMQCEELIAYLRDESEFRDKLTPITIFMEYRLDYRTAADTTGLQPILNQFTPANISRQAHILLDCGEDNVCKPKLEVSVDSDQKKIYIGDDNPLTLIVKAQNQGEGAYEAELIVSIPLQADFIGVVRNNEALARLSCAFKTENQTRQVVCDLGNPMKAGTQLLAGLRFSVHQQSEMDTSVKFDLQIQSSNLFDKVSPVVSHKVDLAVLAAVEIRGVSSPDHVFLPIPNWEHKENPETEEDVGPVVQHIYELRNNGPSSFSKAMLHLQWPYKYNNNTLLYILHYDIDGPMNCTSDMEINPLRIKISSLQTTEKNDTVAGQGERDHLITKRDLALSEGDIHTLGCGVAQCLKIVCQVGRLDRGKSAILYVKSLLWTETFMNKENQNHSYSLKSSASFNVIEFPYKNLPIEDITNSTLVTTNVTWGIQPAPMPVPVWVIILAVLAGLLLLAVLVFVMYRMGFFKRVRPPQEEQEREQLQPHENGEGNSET
T1 chain 2: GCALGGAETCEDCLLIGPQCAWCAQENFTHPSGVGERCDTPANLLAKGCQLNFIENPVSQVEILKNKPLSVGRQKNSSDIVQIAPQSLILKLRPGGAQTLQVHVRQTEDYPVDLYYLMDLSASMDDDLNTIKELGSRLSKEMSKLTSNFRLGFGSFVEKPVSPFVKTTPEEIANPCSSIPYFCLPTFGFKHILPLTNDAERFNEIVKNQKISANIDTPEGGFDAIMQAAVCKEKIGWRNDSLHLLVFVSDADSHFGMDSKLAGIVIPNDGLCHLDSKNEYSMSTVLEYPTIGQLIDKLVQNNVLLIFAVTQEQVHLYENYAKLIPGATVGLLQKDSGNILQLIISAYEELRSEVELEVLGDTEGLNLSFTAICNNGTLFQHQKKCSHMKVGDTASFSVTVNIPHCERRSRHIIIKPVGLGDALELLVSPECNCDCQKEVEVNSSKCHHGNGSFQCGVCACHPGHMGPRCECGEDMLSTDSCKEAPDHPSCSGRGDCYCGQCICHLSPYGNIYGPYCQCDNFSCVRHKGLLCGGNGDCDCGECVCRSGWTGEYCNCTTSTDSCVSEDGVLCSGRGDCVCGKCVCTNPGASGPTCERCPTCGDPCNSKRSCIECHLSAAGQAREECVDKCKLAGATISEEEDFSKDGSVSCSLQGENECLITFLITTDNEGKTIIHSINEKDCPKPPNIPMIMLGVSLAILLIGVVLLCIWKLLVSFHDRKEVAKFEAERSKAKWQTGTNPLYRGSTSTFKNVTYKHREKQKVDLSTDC
Experiment: competition binding on 293F cells; 2nM m2A2-AF647 competitor
B1 was tested, and the EC50 was 46 nM. B2 showed an EC50 of 2 nM. With B3 the EC50 was 1 nM.

Target: T1, human αvβ6 on 293F:huβ6 cells
Experiment: as above
Remark: another data set of the same source
B4 was tested, and the EC50 was 9 nM. With B5 the EC50 was 5 nM. For B6, the EC50 was 3 nM. For B7, the EC50 was 3 nM. For B8, the EC50 was 3 nM. In the case of B1, the EC50 is reported as 30 nM. B2 gave an EC50 of 3 nM. B9 showed an EC50 of 46 nM. B10 gave an EC50 of 6 nM. With B11 the EC50 was 12 nM. Work on B3 yielded an EC50 of 1 nM. In the case of B12, the EC50 is reported as 8 nM. In the case of B13, the EC50 is reported as 14 nM. For B14, the EC50 was 5 nM.

Target: T1, human αvβ6 on 293F:huβ6 cells
Experiment: as above
Remark: another data set of the same source
B6 was tested, and the EC50 was 4 nM. Work on B8 yielded an EC50 of 3 nM. Work on B15 yielded an EC50 of 6 nM. Work on B16 yielded an EC50 of 74 nM. B12 was tested, and the EC50 was 5 nM. B17 showed an EC50 of 85 nM. For B18, the EC50 was 9 nM. Binder B19 has an EC50 of 74 nM. B20 was tested, and the EC50 was 147 nM.
